Consider four molecules from US20190100588A1 (published 2019).

Common to all, as to assay: ELISA
(ELISA stands for enzyme-linked immunosorbent assay.)

One assay has as its target T1, Pep6.
T1 peptide: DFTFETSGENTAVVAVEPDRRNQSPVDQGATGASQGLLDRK

In another assay the target is T2, Peptide 2a.
T2 peptide: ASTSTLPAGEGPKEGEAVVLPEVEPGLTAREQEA

Assay [1] deals with T3, recombinant CD138 extracellular domain (soluble CD138) (UniProt P18827 23-250).
T3 chain: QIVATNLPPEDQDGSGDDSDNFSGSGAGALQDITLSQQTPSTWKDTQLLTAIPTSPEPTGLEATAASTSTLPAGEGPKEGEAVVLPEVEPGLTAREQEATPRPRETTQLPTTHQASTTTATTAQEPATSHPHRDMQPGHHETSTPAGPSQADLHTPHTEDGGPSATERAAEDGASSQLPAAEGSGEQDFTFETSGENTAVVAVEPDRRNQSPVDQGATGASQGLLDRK

Changes are numbered by the printed parent chain.

B1: antibody 1610 (antibody, V domains shown)
VH: QVQLHQPGTSLVKPGASVKLSCKASGYNFSSYYMHWVKQRPGQGLEWIGTIHPSDSTTNCNQKFKGKATLTVDKSSRTAYMQLNSLTFEDSAVYYCANFVYWGQGTSVTVSS
VL: DIVITQDELSNPVTSGDSVSISCRSSKSLLYKDGKTYLNWFLQRPGQSPQLLIYVVSTRASGVSDRFSGSGSGTDFTLEISRVKAEDVGVYYCQQLVEYPYTFGGGTKLEIK
Turning to B1, the results for the EC50 (with Pep6; in the assay with Peptide 2a; in assay [1]) were 12.3 ng/mL, 3.9 ng/mL and 2.7 ng/mL, respectively.

B2: antibody 2510 (antibody, V domains shown)
VH: B1 VH with C60Y
VL: B1 VL
As for B2, the EC50 (usually the concentration at which the effect is half-maximal) came to 8.9 ng/mL in the assay with Pep6, 4.6 ng/mL with Peptide 2a and 4.9 ng/mL in assay [1].

B3: antibody 2610 (antibody, V domains shown)
VH: B1 VH with N28S
VL: B1 VL
B3: the EC50 with Pep6 turned out to be 4.9 ng/mL; with Peptide 2a, 3.8 ng/mL; in assay [1], 7 ng/mL.

B4: antibody 2810 (antibody, V domains shown)
VH: B1 VH with N28S, C60Y
VL: B1 VL
As to B4, the EC50 in the assay with Pep6 is 3.2 ng/mL; with Peptide 2a, 2.8 ng/mL; in assay [1], 5.3 ng/mL.
